Results published in US20240026407A1, “MODIFICATION OF SAPONINS” (GLAXOSMITHKLINE BIOLOGICALS SA, priority 2020, published 2024).

B1: 169 (protein, listed as Bifiguratus adelaidae)
chain: MASSRVTELLANLTLEEKVYLLSGSDNWRTFPVPRLGIPAVKVTDGPIGARGDSFNTGQNAACFPAPIAMASTWDTDLLLKVGSALGEEAKSKAAQVLLAPTINMHRSPLNGRNFECYSEDPFLTGKMATAFVSGLQSQGVAAAVKHFACNDSEFERDSISSEITERPFREIYLRPFEMVVRDADPWCIMTSYNKINGVFASENPKLLKEILRNEWNWKGMVMSDWFGVKSTVPSVLNGNDLEMPGPPAWRGEKLLAAIKQGELKEEDLNESVQRVLSFVERVGKFEDPEERPETYLAKPEITELIRNVSADSIILVKNEQSLPLNKDALKSVAIIGPNAKTAVTMGGGSSKVQAPHEVTPYEGIAAALGEDVDIRHSVGAYTHKLIPQLDDRLQTPDGELGYIMDVYESKNFGETPTDSKVLNNTRVIIHDAGFKDVDFRSFSAKVRARYTAKHTGPHTFGIASVGLSKLYVDGKLVIDNWTSQVRGDIFFGFGSREEKAQYDMIEGQTYEILIDYMTGHELMAMLRFGLLEPLASDVVEQAVKVAEGTDVAVVVVGLNNEWETEGYDKTELELPGGQNELIEAVANVNKNTIVVVQCGSPVVMPWIDKVSGVIVAWYGGQETGHSIADVLFGKVNPSGRLTQTFPKRLEDNPAFDNYPGENGKVIYGEGLFIGYRYYQRRKVDVFLPFGFGLSYTTFDYGNIKLDNSELDPQAHITVSVDVTNTGSIAGKEVVQVYVHDNHPRLSRPLAELKGFSKVELAPGETRTVQITLDKHAVAFYDDKEAVWVAEAGEFELHIGSSSADIRGKVPFTVTKSLSWTF
B2: 207 (protein, listed as Bifidobacterium dentium)
chain: MSESTYPEVNDLTLEEKASLTSGGDAWHLQGVEAKGIPGYMITDGPHGLRKSLASSTGETDLNDSVPATCFPPAAGLSSSWNPELIHQVGEAMAEECIQEKVAVILGPGVNIKRNPLGGRCFEYWSEDPYLAGHEAIGIVAGVQSKGIGTSLKHFAANNQETDRLRVSANISQRALREIYFPAFEHIVKEAQPWTIMCSYNRINGVHSAQNHWLLTDVLRDEWGFEGIVMSDWGADHDRVASLNAGLNLEMPPSYTDDQIVYAARDGRIQPEQLDRMAQGMIDLVNKTRAAMSVEGYRFDVDAHDEVAHQAAVESMVLLKNDDAILPVASDAKVAVIGEFARTPRYQGGGSSHITPTKMTSFLDTLAARGVDAKFAPGFTLDLEPADAAMAADAVEVAKGADVVLMFLGLPEAAESEGFDRETLDIPAKQVELLEAVAAENKNIVVVLSNGSVVSVAPWADNAKGILESWLLGQAGGPALADVIFGNVSPSGKLAQTVPMDINDDPSMINWPGEEGHVDYGEGVFVGYRYYDTYDKAVDYPFGYGLSYATFEVSDVKVAKTGANTASVSAVVKNTSDVDAAETVQVYVAPGKSAVARPIHELKGFRKVFLKAGESAEVSFDLDERAFAYWSEKFDDWHVESGEYAIEVGTSSRDIAGTGVVELDGDGKAEPLTEWSTFGEWSDDPVGSKIVASVYAEGEAGNLPKMPDNDMMRMFLRSMPINSMPMLMSEGGKKITAFMLDEYAKVTE
B3: 5 (protein, listed as Actinobacteria bacterium)
chain: MSELVENLILRLTLEEKATLTSGTDMWNAHGIDRLGIPGLKVSDGPVGVRGERWVGTTSACTPCGTALGATWNMELIEQVGVVLGEEAKSKSVDIVLAPTVNLHRNPLAGRNFECFSEDPFLTGLAATAIINGIQSAGVGACVKHFVANDSEYQRHTISSQVSERVLRELYLLPFEMVIRDTDVVAVMSGYNRLNGTYCAEHDWLLNQILKQEWGFDGLVMSDWWGTMSSASAAGGLDLEMPGPAKYLGPQLAQMVADGTLDATALDEMARRILHVSERLGLLAHSSPATPSRAAERSEDLPTHQAILRSAAEQAVVLLTNRLIEGQTVLPLDVSSLRHVAVIGPSADTAAVLGGGSAAVNPHYAVSILQGLQEALPSHVKVTHEIGVHASHSAPPIDSRCLRSAVQPDKPGLDVEYFANREFAGTPACVEHAAQPRLVWMGSEAASGVATNNLSVRVSGTFIARSTGTHTFALVTGGTGGRVLLDGESILDNYTGQESGTAFFGLGSSEILAEVYLEQGEERGIIGEFTGYEGMDVAAFLIGHREPLAADGIERAAKAAAEAEVAIVVVGLDQDSETEGEDRKTISLPGEQDALLRAVIAANPRTVVLVNAGSVVDLAATEGAAAIAQTWYLGQETGNAVAAVLTGSVDPSGRLPTTFGKKVQDWSSHLNYPGEFGEVLYGEELFMGYRGFDQQQIEPAFCFGHGLSYTSFDWSGATLSTSSLSQTELLDGAQFSLSAEVTNTGDTSGYEVLQCYVQRDQSQSGRPEQELCGFVKVHLSPGQTATVNIPLNFRSCAVWDQPSRSWLVHPGEIKFRLSSSSRDTRSTAAFQVTT
B4: 247 (protein, listed as Arthrobotrys oligospora)
chain: MDATTLKEIEETLAQLTLEEKISLLAGKDFWRTVPLPEKQIPSIKVSDGPSGARGDTFSGGQKAAFFPSGILMGATFNPELAYETGELLSEEVRAKSASVLLAPTACCHRSPLGGRNFESYSEDPLLSGKMASGYIRGVQSRGIAATMKHFVANEQETWRLYVDETIDETTLREIYLKPFEIAMREGQPWAIMTAYNIINGVHCDSHPLTLKQVLRGEWNYEGLVMSDWFGCNSMVESLLAGLDLEMPGPARKRPIKEFVEAAEKDESVRKAIDDSARRILTLIAKVGKWKDMTPEAPEYSRNDPETGKLIRRAGGEGTVLLKNEGKTLPLQPGSLKKVAFIGPNAKATVAGGGGSANLEPNYLTQPYETFVTAIKEINGDIEVPWVQGCIIDRWVPNIDVEGGFCRVGGPDSEAGLFLEWFRGYEATGEPVATTVFKTSNAFLWDSRPTSISPSEEFSVRFSGQISVPEDGKYNISLSTITASKLYLNGELLIDNWDFKERGNLMMNVGSEEVVKTIELKKGEWYPILVHNSSIWPKDSPRDPPMEEIGALGIRLGVAPVYDNAVLIAEAADAVKDADAVVIVVGLNNEWESESYDRSDTKLPNNQDDLIEEIAKVNQNVIVVNQSGAPVDMPWAENSNVKAIVQAWYAGQEAGHVIADVLLGKQNPSGKLPLTFPIKVQDNPSYLYFPGRDQKVEYTEKLMVGYRYYDTENVQTRFPFGYGLSYSTFSIGEPSLSTAELTEGQTFTANVDVSNTSNVAGAEVVQLYVKRPASTSSIKRPVKELKGFKKVHLGTGETATANITVDDKSLGIWSTEAGKWVVEAGDYEVLIGTSSVQDELKPAGKITVKAAWSWI
B5: 101 (protein, listed as Meira miltonrushii)
chain: MSAPIDPQALLAQLTLEEKIQLTAGADLWRTVAIERLKIPYIKLTDGPIGARGGGDFHDSTPSTLFPSPSCLGSTWDTKLAYEMGKQIALDGIEKQCHVILGPTINGQRDPRAGRFFESYSEDPTLMGFLASHWVQGVQSCGVGATMKHFVANEAEYDRRNNSSDVSIEALREVYLEPFRIIMADMQRKASAHDDPFKFQPACVMTAYNRVNGVSSSENDAMITDILRKEWGFDGLVMSDWFAMHANAFNATDLEMPGPTIFRTIEKTIDTIKKGDEEGKKMAKDLDRCVLKVLELVKKVHKLGYQKSVADEVEKSVPIEQVGPAIRKIGAEGAVLLKNDNDILPIIPKKDLKILCVGAPWIEAVQSGGGSANLTPQKVMQPLSTFKDALKNEKGGQDVTVNHHNGIGIHNFVKPLEQSIKLDFLTGRQPGKGEVVASTTGQKATLSTMLPKPKEVPWNDYWVRGSLDLEPVKKDCQLRFGLLGLGTITAYLTIDGDKSKQSIWNFDGETDLFESIVNPLRNWQENVITVKAGQKIQIEAHFVPRLVGKEHGDAKYGGFQIGMEEVDDEDALIAEAVQQAKEADLTVIMTAVGKDWESEGFDRPTIFLPRRQDDLVNQVTKACPGKTVILNLTGSVVEMPWRNDATGIVQCWYGGQEGAVSLSDILLGRGDAPASGRLAHVWPARIEDHPSGVDEAYFPGTHLPNDKEGPHTEYVEGRLVGYKYYNKNKNANQPAFHFGEGLGGYTTFATEGPVVKGSTKINKSSLPLSLTVKSTNKGKRSGKEVAQIYLRPHVPLSDAKDEPIQRLAGFAILRPAPGQSEEAEIQLYQETFSHWDEKSRSWQVKQGDYDLVLARSARYGEELGKATITIDQSWSWTGTGVN

Legend:
Format in all cases: biochemical, Quillaja saponaria
[1] = Experiment 4-1: screening of glucosidases for deglycosylation with purified QS-18 (0.04 mg/ml) at pH 7.5 and room temperature; details: pH 7.5, room temperature, 20 h, clarified E. coli lysate, QS-18 2150 to QS-21 1988 by LCMS/MS
Procedure, shortened: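 Deglycosylation measured by LC-MS/MS as % conversion after 20 h room-temperature incubation of QS-18 phenyl fraction (0.04 mg/ml final) with polymyxin B/lysozyme lysates, pH 7.5 phosphate, of E. coli BL21(DE3) expressing each enzyme; MeCN quench. Positives exceeded negative control by >3 S.D.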

[2] = Experiment 4-2: screening of glucosidases for deglycosylation with purified QS-18 (1 mg/ml) at pH 6 and 30 deg C; details: pH 6, 30 degC, 18 hrs, clarified lysate, LCMS/MS
Procedure, shortened: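 Enzyme activity derived from LC-MS/MS analysis after MeCN quench. Substrate QS-18 (1 mg/ml final) was exposed overnight (18 h, 30 °C, pH 6 phosphate buffer) to clarified lysates containing candidate glucosidases.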

[3] = Experiment 4-3: screening of glucosidases for deglycosylation with QS-18 in crude bark extract (1 in 2000 dilution) at pH 7 and 30 deg C; details: CBE 1 in 2000 dilution, pH 7, 30 degC, 1 h; % conversion of QS-18 by LCMS/MS
[4] = Experiment 4-4: screening of glucosidases for deglycosylation of QS-18 in crude bark extract (1 in 20 dilution) to QS-21; details: CBE 1 in 20 dilution, pH 6, 25 degC, 18 hours; % conversion of Middle Peak by UV HPLC
Procedure, shortened: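 Clarified glucosidase lysates were incubated with pH 6 crude bark extract (1 in 20) in potassium phosphate buffer pH 6 for 18 h at 25 °C with shaking, then quenched with MeCN. UV HPLC with MS/MS-supported peak identity; activity is % conversion of the extract's Middle Peak (QS-18 family) toward the QS-21 peak.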

| Molecule | Expt 4-1 % conv [1] [%] | Expt 4-2 % conv [2] [%] | Expt 4-3 % conv [3] [%] | Expt 4-4 % conv [4] [%] |
| --- | --- | --- | --- | --- |
| B1 | 19.8 | 2.1 | 2.4 | <3 |
| B2 | 27.4 | 4.4 | 0.2 | <3 |
| B3 | 70.8 | 16.6 | 1.4 | <3 |
| B4 | 18.0 | 2.0 | 2.7 | <3 |
| B5 | 28.2 | 1.0 | 1.8 | <3 |
